# Laboratory results as given in the supplement of paper PMC12042874.
# ± gives the uncertainty stated by the source.
# Experiment: amyloid nucleation score (Sup35N fusion, yeast selection) (log enrichment); library NNK1; higher = more nucleation; inactive = no reads after selection
# Procedure, shortened: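 Random libraries were run with three technical output replicates. In each, psi-negative yeast expressing Sup35N fused to peptides of 20 random codons were induced 24 hours with 100 μM copper sulfate and grown 7 days at 30°C on medium lacking adenine and uracil, and input and output plasmid inserts were Illumina-sequenced. The nucleation score is the DiMSum log enrichment of output over input reads, centred on the mode score of non-aggregating sequences, and sequences under 100 input reads were excluded.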
row,Substance,amyloid nucleation score
1,WVVCVIDEGSSTFFINI,-0.556 ± 1.4
2,WLFLTYNVMGLKVGKFAGHT,-0.437 ± 0.42
3,FVRGDKLRTTGELSSAINRS,-0.608 ± 0.57
4,RFRNGLNLFRMSNMFSNLKH,-0.129 ± 1.1
5,IYPKLDCYVAVVLLDLSGVT,inactive
6,ELSLKVFPTARIKRCMFEPM,0.838 ± 0.45
7,YWWRWSVSI,0.386 ± 0.33
8,MVRYLGYYLPNWRSFHWHRL,0.951 ± 0.44
9,VYTSRDGNDLEACGGYSAIV,0.705 ± 0.71
10,SCPRVTIFCCSGILGREWGK,7.189 ± 0.045
11,WRMCSHCVLPHSMFSDSNTV,-1.03 ± 1.3
12,PRYMTLGVVWSMSGWSESVQ,1.04 ± 0.52
13,CWDGRQIWVILVIVLIRINA,-0.466 ± 0.91
14,SVNLGGHAGCCGCWAYGGFR,0.851 ± 0.37
15,KELIKCYLNM,0.463 ± 0.5
16,LPRNYTLLMPAVYIYVLVSW,inactive
17,IEWRVKLRLLRCQYID,-0.507 ± 0.34
18,CDLFDFCISSKCRFKFLGRM,-0.131 ± 0.9
19,QHCARTAGVSVARVVVSNCG,0.161 ± 0.41
20,SVCVCLTIGCDFSIESVRCN,2.64 ± 0.32
21,NMFMIV,-1.05 ± 1.3
22,RTRTFVNPAAAIHMPPSEET,0.049 ± 0.29
23,GSWIFCVFHLNMDFCSMGST,-0.023 ± 0.6

row,Substance,amyloid nucleation score
1,VMLGGSPHMPIAN,0.047 ± 0.41
2,TFLQFTRYFWLTTYNKGSS,inactive
3,RFRVEGPMYFICICKRLFTY,-0.555 ± 0.44
4,RSSSCKWV,-0.53 ± 0.75
5,TSFMEIVVLDAVGRQRRSSV,-0.106 ± 0.49
6,FIRWKLVYYDIMKCPSCSHH,-0.187 ± 0.61
7,LTSFSTDPISGLLAGCFSID,inactive
8,SYYHRFSRIGMRSLGQEQCY,inactive
9,MYGGKCSNGPCMYSVGIGTW,1.39 ± 0.34
10,TRFNFMGLYNLRMVN,-0.777 ± 1.2
11,SLCFYGEQIFHN,2.24 ± 0.17
12,VATIQRISGIKQESAGSRTF,-0.07 ± 0.93
13,ESSYLMNKCSSAIQDWDWGR,0.321 ± 0.4
14,SKTSKWYPTDKLNTGALFLK,-0.321 ± 0.34
15,RMLCYEFCCLNLDVGIYCAS,inactive
16,LWFINVLNK,5.103 ± 0.049
17,SCMMYQMCNWHERAPSTVLL,0.908 ± 0.58
18,MNLRETSAFSPCNEVL,-0.063 ± 1.4
19,MGYRDNLSF,0.915 ± 0.53
20,IRLRMWDHRWSTKGGSHTFL,-1.36 ± 0.95
21,LDFMSLHN,0.218 ± 1
22,LLATCVRVECY,1.58 ± 0.51
23,RARWDPFLMCYLTVVWTSFV,-0.12 ± 0.29

row,Substance,amyloid nucleation score
1,NVDSRFD,-1.1 ± 0.81
2,SWPLWEVMPRWGARDRGWVG,0.553 ± 0.93
3,YGVRFGVFLSTCLNFSGEYR,-0.178 ± 0.42
4,DGRKG,1.26 ± 0.66
5,VPCGKLIISGGVQNCIYYWE,7.306 ± 0.056
6,LALLWDMPF,-2.19 ± 2.7
7,SIFLCVSLSVTCETILAGLD,2.8 ± 0.16
8,VWYTRGRRHRGTTYMSNRLW,-0.28 ± 0.31
9,RDWKSFSVCVFLIFIACNTG,-0.605 ± 0.4
10,LSLCSLYNSWQGM,0.492 ± 0.4
11,CLFRCVVEPLVIGYTKCAS,inactive
12,LLCFLFTK,3.32 ± 0.15
13,TAKRLAT,0.21 ± 0.8
14,SNTEP,-0.487 ± 0.57
15,TSRGKDLSTRVGGGAPPGFR,-0.766 ± 1.6
16,ISLTDRVSGNRAVYHCSYAS,-1.01 ± 1.4
17,WQSFGVSGRLPYRQWSD,inactive
18,LFDNFIAHMGCSRIPYDSHS,-0.086 ± 0.3
19,MDLAYMFKLCIGVESM,inactive
20,LSDWWKTSMFGYPVYSVVAR,0.62 ± 0.36
21,WVWSLRLLGFNNLMDKATGF,-0.312 ± 0.24
22,NTVCSAMRW,4.14 ± 0.091
23,CRSSGADSRLLNIVKPCTLP,-0.616 ± 0.33
